Holding throughout (details): both partners purified
The target of one experiment is T1, POLE1 (human, UniProt Q07864 1-2286).
T1 construct: POLE1, catalytic subunit of Pol ε, human; Stood in the structure as a subunit of m2; residues 1,371-2,280 modelled; also called POLE1 catalytic subunit; POLE1^nonCat (the modelled C-terminal non-catalytic domain); source: Hi5 insect cells, purified as a subunit of Pol ε
Put plainly: cryo-EM structure; replisome reconstituted on fork DNA with AMP-PNP, isolated on a glycerol gradient with glutaraldehyde and BS3; 3.2 Å overall; a sample without CLASPIN solved at 3.4 Å.

Another experiment has as its target T2, AND‐1 (human, UniProt O75717 1-1129).
T2 construct: AND-1, human; Only the trimer of SepB domains is ordered in the map; source: Hi5 insect cells (baculovirus), purified (Flag M2, MonoQ, Superdex 200)
T2 sequence: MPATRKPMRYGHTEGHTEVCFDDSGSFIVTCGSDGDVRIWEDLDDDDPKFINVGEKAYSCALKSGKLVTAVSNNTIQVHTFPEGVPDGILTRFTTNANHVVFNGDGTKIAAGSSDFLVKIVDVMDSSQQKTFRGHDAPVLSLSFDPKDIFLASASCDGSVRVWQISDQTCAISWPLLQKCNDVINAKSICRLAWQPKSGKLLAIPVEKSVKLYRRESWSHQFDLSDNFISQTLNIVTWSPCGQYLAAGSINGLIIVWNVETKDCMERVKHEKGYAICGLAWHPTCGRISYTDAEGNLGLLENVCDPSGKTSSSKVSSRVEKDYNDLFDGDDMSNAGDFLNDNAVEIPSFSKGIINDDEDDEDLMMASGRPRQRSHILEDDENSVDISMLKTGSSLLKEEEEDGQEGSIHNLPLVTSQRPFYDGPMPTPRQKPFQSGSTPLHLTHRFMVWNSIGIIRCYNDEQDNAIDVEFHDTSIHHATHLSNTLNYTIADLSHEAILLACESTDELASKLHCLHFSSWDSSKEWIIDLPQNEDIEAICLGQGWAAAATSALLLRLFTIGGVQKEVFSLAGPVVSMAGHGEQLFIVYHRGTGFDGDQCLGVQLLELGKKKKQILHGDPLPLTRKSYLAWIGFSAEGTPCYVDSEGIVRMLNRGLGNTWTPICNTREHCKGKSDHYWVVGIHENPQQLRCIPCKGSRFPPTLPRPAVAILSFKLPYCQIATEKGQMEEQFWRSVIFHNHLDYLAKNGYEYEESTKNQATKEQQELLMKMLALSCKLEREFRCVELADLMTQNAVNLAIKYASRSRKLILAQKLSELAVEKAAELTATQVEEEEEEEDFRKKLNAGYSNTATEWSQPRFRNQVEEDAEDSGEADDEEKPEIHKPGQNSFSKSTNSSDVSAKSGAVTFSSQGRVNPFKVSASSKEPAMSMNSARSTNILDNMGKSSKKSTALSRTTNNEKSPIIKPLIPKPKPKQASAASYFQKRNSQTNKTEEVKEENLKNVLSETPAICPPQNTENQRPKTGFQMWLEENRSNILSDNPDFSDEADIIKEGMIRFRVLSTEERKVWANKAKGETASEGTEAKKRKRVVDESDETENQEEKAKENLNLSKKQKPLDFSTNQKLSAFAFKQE
The description is as above.

A further experiment addresses T3, CLASPIN (human, UniProt Q9HAW4-1 1-1339).
T3 construct: human CLASPIN; residues 284-319, 525-540 and 592-618 modelled
Put plainly: cryo-EM structure; independent replisome preparation that also contained CLASPIN; map EMD-13494 (to be published in a separate study), model PDB 7PFO docked into the density.

In experiment [1] the target is T4, human CDC45‐MCM‐GINS (CMG) helicase (human, UniProt P49736 1-904; P25205 1-808; P33991 1-863; P33992 1-734; Q14566 1-821; P33993 …).
T4 construct: MCM2, human; MCM3, human; the construct lacks the 45 additional N-terminal amino acids of the longer isoform used in PDB 6XTX; MCM4, human; MCM5, human; MCM6, human; MCM7, human; CDC45, human; PSF1 (GINS subunit), human; PSF2 (GINS subunit), human; PSF3 (GINS subunit), human; SLD5 (GINS subunit), human; also called hsCMG; source: Hi5 insect cells co-infected with baculoviruses for MCM2-7, GINS …
Briefly: co-sedimentation; native glycerol gradient without cross-linker (40 mM HEPES-NaOH pH 7.5, 150 mM NaOAc, 0.5 mM TCEP, 500 µM AMP-PNP, 3 mM Mg(OAc)2), 200,000 g, 4°C, 2 h; 100 nM CMG pre-incubated with fork DNA, 1.5-fold molar excess of the other proteins; fractions on silver-stained SDS-PAGE.

T1 sequence (Q07864 whole entry, the tested form may be a part): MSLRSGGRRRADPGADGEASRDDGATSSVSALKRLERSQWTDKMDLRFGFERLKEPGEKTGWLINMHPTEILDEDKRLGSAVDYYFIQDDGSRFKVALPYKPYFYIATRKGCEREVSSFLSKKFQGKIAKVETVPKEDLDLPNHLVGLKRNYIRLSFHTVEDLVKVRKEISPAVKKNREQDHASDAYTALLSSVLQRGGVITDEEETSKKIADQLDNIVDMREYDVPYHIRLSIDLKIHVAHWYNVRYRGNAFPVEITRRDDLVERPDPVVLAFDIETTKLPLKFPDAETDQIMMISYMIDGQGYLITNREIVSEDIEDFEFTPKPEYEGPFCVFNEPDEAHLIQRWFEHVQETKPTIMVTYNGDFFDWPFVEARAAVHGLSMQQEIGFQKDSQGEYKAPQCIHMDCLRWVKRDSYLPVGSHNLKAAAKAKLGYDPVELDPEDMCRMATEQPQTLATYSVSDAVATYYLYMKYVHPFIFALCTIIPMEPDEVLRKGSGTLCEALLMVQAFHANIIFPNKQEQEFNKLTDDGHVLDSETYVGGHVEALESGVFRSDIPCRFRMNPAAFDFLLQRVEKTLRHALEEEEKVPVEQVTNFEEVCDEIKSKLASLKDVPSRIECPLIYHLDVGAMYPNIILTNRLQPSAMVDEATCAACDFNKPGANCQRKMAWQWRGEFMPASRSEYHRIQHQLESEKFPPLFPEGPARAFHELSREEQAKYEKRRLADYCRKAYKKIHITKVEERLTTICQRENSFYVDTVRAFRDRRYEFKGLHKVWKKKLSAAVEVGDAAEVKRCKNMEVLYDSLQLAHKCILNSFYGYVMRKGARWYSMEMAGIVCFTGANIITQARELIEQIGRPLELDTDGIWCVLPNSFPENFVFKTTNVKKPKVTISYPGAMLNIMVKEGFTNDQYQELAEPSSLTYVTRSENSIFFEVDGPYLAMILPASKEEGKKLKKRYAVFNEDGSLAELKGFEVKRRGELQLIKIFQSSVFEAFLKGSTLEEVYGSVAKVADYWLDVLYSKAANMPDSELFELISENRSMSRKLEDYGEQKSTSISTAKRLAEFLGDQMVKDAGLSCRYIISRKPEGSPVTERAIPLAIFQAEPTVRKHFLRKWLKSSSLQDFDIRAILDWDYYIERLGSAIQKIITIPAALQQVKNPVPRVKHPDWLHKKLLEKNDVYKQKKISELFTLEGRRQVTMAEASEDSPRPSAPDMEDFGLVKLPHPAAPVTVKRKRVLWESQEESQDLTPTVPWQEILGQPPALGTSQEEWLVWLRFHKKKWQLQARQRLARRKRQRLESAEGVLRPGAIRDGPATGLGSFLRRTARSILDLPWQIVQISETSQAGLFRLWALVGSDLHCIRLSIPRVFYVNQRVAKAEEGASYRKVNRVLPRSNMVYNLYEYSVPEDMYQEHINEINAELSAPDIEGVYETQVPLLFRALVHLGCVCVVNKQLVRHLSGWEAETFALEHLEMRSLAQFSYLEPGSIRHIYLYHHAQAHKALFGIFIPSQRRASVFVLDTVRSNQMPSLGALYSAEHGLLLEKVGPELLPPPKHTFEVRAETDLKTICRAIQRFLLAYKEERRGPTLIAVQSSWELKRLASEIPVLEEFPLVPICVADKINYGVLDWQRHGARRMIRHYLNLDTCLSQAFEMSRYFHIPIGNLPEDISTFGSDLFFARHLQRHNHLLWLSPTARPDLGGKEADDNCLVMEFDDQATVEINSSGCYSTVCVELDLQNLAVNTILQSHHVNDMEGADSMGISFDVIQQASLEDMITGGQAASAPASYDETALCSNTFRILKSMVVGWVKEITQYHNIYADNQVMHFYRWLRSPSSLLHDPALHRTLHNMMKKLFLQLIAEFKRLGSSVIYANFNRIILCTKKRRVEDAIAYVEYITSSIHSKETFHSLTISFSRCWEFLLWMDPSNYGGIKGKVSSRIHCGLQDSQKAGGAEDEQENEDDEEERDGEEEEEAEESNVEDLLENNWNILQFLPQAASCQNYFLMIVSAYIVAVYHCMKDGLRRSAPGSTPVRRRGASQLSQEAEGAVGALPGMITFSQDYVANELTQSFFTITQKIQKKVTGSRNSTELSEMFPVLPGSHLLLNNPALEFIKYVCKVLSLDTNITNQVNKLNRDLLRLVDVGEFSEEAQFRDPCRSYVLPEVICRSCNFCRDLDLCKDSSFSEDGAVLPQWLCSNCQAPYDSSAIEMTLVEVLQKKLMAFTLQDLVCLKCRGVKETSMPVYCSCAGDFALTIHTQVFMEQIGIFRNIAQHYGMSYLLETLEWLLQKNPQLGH
T3 sequence (Q9HAW4 whole entry, the tested form may be a part): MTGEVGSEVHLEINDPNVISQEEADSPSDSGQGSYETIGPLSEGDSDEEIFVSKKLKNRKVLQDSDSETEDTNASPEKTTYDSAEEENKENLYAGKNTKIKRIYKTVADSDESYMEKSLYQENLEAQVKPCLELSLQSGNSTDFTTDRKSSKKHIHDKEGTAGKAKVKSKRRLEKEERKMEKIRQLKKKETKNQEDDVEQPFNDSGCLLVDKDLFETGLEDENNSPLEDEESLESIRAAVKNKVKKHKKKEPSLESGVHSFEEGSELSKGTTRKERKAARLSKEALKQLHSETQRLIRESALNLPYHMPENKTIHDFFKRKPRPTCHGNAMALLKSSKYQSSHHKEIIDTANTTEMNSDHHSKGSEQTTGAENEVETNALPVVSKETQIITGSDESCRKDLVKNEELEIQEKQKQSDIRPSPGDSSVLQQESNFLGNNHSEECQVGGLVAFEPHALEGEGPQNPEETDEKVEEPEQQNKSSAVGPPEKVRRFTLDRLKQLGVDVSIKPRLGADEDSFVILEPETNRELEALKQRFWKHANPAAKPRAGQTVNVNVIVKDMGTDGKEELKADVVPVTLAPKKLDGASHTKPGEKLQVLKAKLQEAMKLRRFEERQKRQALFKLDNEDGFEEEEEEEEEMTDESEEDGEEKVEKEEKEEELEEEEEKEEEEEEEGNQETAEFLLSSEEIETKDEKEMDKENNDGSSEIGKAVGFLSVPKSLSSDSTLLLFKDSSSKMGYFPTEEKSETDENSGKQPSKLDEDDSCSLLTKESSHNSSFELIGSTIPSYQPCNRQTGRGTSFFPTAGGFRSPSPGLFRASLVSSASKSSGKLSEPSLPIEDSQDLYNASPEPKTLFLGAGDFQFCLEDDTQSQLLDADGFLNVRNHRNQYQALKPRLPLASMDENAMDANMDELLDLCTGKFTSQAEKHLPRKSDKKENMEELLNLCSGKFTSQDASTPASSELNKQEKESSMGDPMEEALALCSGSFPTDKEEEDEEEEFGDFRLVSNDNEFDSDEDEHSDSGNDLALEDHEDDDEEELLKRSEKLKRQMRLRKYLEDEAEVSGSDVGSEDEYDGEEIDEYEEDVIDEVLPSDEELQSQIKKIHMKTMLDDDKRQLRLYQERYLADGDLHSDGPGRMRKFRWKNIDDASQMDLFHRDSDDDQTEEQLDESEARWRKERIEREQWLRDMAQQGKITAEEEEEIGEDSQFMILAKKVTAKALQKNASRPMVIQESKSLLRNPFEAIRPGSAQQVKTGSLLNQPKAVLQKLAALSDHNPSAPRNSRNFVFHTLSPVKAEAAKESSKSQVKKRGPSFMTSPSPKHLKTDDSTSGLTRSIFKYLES

B1: CDC45 (natural protein, human, UniProt O75419 1-566, looked up)
chain: MFVSDFRKEFYEVVQSQRVLLFVASDVDALCACKILQALFQCDHVQYTLVPVSGWQELETAFLEHKEQFHYFILINCGANVDLLDILQPDEDTIFFVCDTHRPVNVVNVYNDTQIKLLIKQDDDLEVPAYEDIFRDEEEDEEHSGNDSDGSEPSEKRTRLEEEIVEQTMRRRQRREWEARRRDILFDYEQYEYHGTSSAMVMFELAWMLSKDLNDMLWWAIVGLTDQWVQDKITQMKYVTDVGVLQRHVSRHNHRNEDEENTLSVDCTRISFEYDLRLVLYQHWSLHDSLCNTSYTAARFKLWSVHGQKRLQEFLADMGLPLKQVKQKFQAMDISLKENLREMIEESANKFGMKDMRVQTFSIHFGFKHKFLASDVVFATMSLMESPEKDGSGTDHFIQALDSLSRSNLDKLYHGLELAKKQLRATQQTIASCLCTNLVISQGPFLYCSLMEGTPDVMLFSRPASLSLLSKHLLKSFVCSTKNRRCKLLPLVMAAPLSMEHGTVTVVGIPPETDSSDRKNFFGRAFEKAAESTSSRMLHNHFDLSVIELKAEDRSKFLDALISLLS
notes: CDC45, human; Stood in the structure as a subunit of m1; source: Hi5 insect cells, purified as a subunit of hsCMG
Turning to B1, the binding result with POLE1 and with AND‐1 was “binds” throughout.

B2: MCM6 (natural protein, human)
chain: MDLAAAAEPGAGSQHLEVRDEVAEKCQKLFLDFLEEFQSSDGEIKYLQLAEELIRPERNTLVVSFVDLEQFNQQLSTTIQEEFYRVYPYLCRALKTFVKDRKEIPLAKDFYVAFQDLPTRHKIRELTSSRIGLLTRISGQVVRTHPVHPELVSGTFLCLDCQTVIRDVEQQFKYTQPNICRNPVCANRRRFLLDTNKSRFVDFQKVRIQETQAELPRGSIPRSLEVILRAEAVESAQAGDKCDFTGTLIVVPDVSKLSTPGARAETNSRVSGVDGYETEGIRGLRALGVRDLSYRLVFLACCVAPTNPRFGGKELRDEEQTAESIKNQMTVKEWEKVFEMSQDKNLYHNLCTSLFPTIHGNDEVKRGVLLMLFGGVPKTTGEGTSLRGDINVCIVGDPSTAKSQFLKHVEEFSPRAVYTSGKASSAAGLTAAVVRDEESHEFVIEAGALMLADNGVCCIDEFDKMDVRDQVAIHEAMEQQTISITKAGVKATLNARTSILAAANPISGHYDRSKSLKQNINLSAPIMSRFDLFFILVDECNEVTDYAIARRIVDLHSRIEESIDRVYSLDDIRRYLLFARQFKPKISKESEDFIVEQYKHLRQRDGSGVTKSSWRITVRQLESMIRLSEAMARMHCCDEVQPKHVKEAFRLLNKSIIRVETPDVNLDQEEEIQMEVDEGAGGINGHADSPAPVNGINGYNEDINQESAPKASLRLGFSEYCRISNLIVLHLRKVEEEEDESALKRSELVNWYLKEIESEIDSEEELINKKRIIEKVIHRLTHYDHVLIELTQAGLKGSTEGSESYEEDPYLVVNPNYLLED
notes: human MCM6, subunit of hsCMG; Subunit of the CMG helicase in the replisome structure; source: Hi5 insect cells co-infected with baculoviruses for MCM2-7, GINS and CDC45; purified as hsCMG (Flag M2, Strep-Tactin XT, MonoQ)
For B2, the binding result with CLASPIN is listed as “binds”.

B3: PSF2 (natural protein, human)
chain: MDAAEVEFLAEKELVTIIPNFSLDKIYLIGGDLGPFNPGLPVEVPLWLAINLKQRQKCRLLPPEWMDVEKLEKMRDHERKEETFTPMPSPYYMELTKLLLNHASDNIPKADEIRTLVKDMWDTRIAKLRVSADSFVRQQEAHAKLDNLTLMEINTSGTFLTQALNHMYKLRTNLQPLESTQSQDF
notes: PSF2 (GINS subunit), human; Stood in the structure as a subunit of m1; also called PSF2 subunit of GINS; source: Hi5 insect cells, purified as a subunit of hsCMG
In the case of B3, the binding result with AND‐1 is on record as “binds”.

B4: TIMELESS‐TIPIN heterodimer (complex, human)
chain 1: MDLHMMNCELLATCSALGYLEGDTYHKEPDCLESVKDLIRYLRHEDETRDVRQQLGAAQILQSDLLPILTQHHQDKPLFDAVIRLMVNLTQPALLCFGNLPKEPSFRHHFLQVLTYLQAYKEAFASEKAFGVLSETLYELLQLGWEERQEEDNLLIERILLLVRNILHVPADLDQEKKIDDDASAHDQLLWAIHLSGLDDLLLFLASSSAEEQWSLHVLEIVSLMFRDQNPEQLAGVGQGRLAQERSADFAELEVLRQREMAEKKTRALQRGNRHSRFGGSYIVQGLKSIGERDLIFHKGLHNLRNYSSDLGKQPKKVPKRRQAARELSIQRRSALNVRLFLRDFCSEFLENCYNRLMGSVKDHLLREKAQQHDETYYMWALAFFMAFNRAASFRPGLVSETLSVRTFHFIEQNLTNYYEMMLTDRKEAASWARRMHLALKAYQELLATVNEMDISPDEAVRESSRIIKNNIFYVMEYRELFLALFRKFDERCQPRSFLRDLVETTHLFLKMLERFCRSRGNLVVQNKQKKRRKKKKKVLDQAIVSGNVPSSPEEVEAVWPALAEQLQCCAQNSELSMDSVVPFDAASEVPVEEQRAEAMVRIQDCLLAGQAPQALTLLRSAREVWPEGDVFGSQDISPEEEIQLLKQILSAPLPRQQGPEERGAEEEEEEEEEEEEELQVVQVSEKEFNFLDYLKRFACSTVVRAYVLLLRSYQQNSAHTNHCIVKMLHRLAHDLKMEALLFQLSVFCLFNRLLSDPAAGAYKELVTFAKYILGKFFALAAVNQKAFVELLFWKNTAVVREMTEGYGSLDDRSSSRRAPTWSPEEEAHLRELYLANKDVEGQDVVEAILAHLNTVPRTRKQIIHHLVQMGLADSVKDFQRKGTHIVLWTGDQELELQRLFEEFRDSDDVLGHIMKNITAKRSRARIVDKLLALGLVAERRELYKKRQKKLASSILPNGAESLKDFCQEDLEEEENLPEEDSEEEEEGGSEAEQVQGSLVLSNENLGQSLHQEGFSIPLLWLQNCLIRAADDREEDGCSQAVPLVPLTEENEEAMENEQFQQLLRKLGVRPPASGQETFWRIPAKLSPTQLRRAAASLSQPEEEQKLQPELQPKVPGEQGSDEEHCKEHRAQALRALLLAHKKKAGLASPEEEDAVGKEPLKAAPKKRQLLDSDEEQEEDEGRNRAPELGAPGIQKKKRYQIEDDEDD
chain 2: MLEPQENGVIDLPDYEHVEDETFPPFPPPASPERQDGEGTEPDEESGNGAPVRVPPKRTVKRNIPKLDAQRLISERGLPALRHVFDKAKFKGKGHEAEDLKMLIRHMEHWAHRLFPKLQFEDFIDRVEYLGSKKEVQTCLKRIRLDLPILHEDFVSNNDEVAENNEHDVTSTELDPFLTNLSESEMFASELSRSLTEEQQQRIERNKQLALERRQAKLLSNSQTLGNDMLMNTPRAHTVEEVNTDEDQKEESNGLNEDILDNPCNDAIANTLNEEETLLDQSFKNVQQQLDATSRNITEAR
notes: TIPIN, human; no cleavage is described in the purification; source: Hi5 insect cells (baculovirus), purified (Strep-Tactin XT, HiTrap Q, Superdex 200)
On to B4, for which the binding result in experiment [1] was “binds”.

B5: MCM5 (natural protein, human)
chain: MSGFDDPGIFYSDSFGGDAQADEGQARKSQLQRRFKEFLRQYRVGTDRTGFTFKYRDELKRHYNLGEYWIEVEMEDLASFDEDLADYLYKQPAEHLQLLEEAAKEVADEVTRPRPSGEEVLQDIQVMLKSDASPSSIRSLKSDMMSHLVKIPGIIIAASAVRAKATRISIQCRSCRNTLTNIAMRPGLEGYALPRKCNTDQAGRPKCPLDPYFIMPDKCKCVDFQTLKLQELPDAVPHGEMPRHMQLYCDRYLCDKVVPGNRVTIMGIYSIKKFGLTTSRGRDRVGVGIRSSYIRVLGIQVDTDGSGRSFAGAVSPQEEEEFRRLAALPNVYEVISKSIAPSIFGGTDMKKAIACLLFGGSRKRLPDGLTRRGDINLLMLGDPGTAKSQLLKFVEKCSPIGVYTSGKGSSAAGLTASVMRDPSSRNFIMEGGAMVLADGGVVCIDEFDKMREDDRVAIHEAMEQQTISIAKAGITTTLNSRCSVLAAANSVFGRWDETKGEDNIDFMPTILSRFDMIFIVKDEHNEERDVMLAKHVITLHVSALTQTQAVEGEIDLAKLKKFIAYCRVKCGPRLSAEAAEKLKNRYIIMRSGARQHERDSDRRSSIPITVRQLEAIVRIAEALSKMKLQPFATEADVEEALRLFQVSTLDAALSGTLSGVEGFTSQEDQEMLSRIEKQLKRRFAIGSQVSEHSIIKDFTKQKYPEHAIHKVLQLMLRRGEIQHRMQRKVLYRLK
notes: MCM5, human; Stood in the structure as a subunit of m1; source: Hi5 insect cells, purified as a subunit of hsCMG
Take B5: the binding result with POLE1 is “binds”.

These data come from paper PMC8634136 (The EMBO Journal, 2021).
